T1: human Flag-tagged soluble TWEAK (amino acids 106-249) (human, UniProt O43508 106-249)
T1 construct: N-terminal placement here is only an order of listing; not shown: Flag tag
T1 sequence: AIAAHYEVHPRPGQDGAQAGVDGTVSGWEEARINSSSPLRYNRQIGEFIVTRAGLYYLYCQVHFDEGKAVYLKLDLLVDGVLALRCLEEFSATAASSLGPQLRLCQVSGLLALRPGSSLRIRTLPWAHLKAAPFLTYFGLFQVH

T2: Biotinylated human soluble TWEAK (amino acids 99-249 of SEQ ID NO: 60) (human, UniProt O43508 99-249, biotinylated (sites not given))
T2 construct: Immobilised on the streptavidin sensor in the Biacore half-life assay; also called Human TWEAK; soluble human TWEAK
T2 sequence: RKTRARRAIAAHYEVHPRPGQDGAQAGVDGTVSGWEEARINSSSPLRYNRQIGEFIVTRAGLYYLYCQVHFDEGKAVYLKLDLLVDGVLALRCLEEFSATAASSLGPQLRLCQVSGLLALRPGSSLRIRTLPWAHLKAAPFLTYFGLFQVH

T3: Human recombinant soluble TWEAK (human, UniProt O43508 99-249)
T3 sequence: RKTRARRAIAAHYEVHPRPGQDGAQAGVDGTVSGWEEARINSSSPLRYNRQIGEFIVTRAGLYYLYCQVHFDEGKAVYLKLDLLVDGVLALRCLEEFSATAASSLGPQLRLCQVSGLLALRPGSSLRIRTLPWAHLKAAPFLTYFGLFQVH


What was measured:
[1] = biological target: T1, human Flag-tagged soluble TWEAK (amino …); experiment: competition ELISA: antibody pre-incubated with human Flag-TWEAK, binding to coated human Fn14:Fc
Protocol: (§1) 96-well Maxisorp® plates (Nunc) were coated with 100 μl 1 μg/ml human Fn14:Fc (extracellular domain of human Fn14 (amino acids 1-75) fused to Fc portion of human IgG1) in PBS per well for 1.5 h at room temperature and blocked with a solution of 5% FBS in PBS for 30 minutes at room temperature under shaking. […] Wells were filled with 100 μl of anti-FLAG-HRP detection antibody, diluted 1:5000 in blocking buffer, and incubated for 1 h at room temperature. After four more wash steps, the signal was developed by addition of 100 μl 3,3,5,5-Tetramethylbenzidine (TMB) solution for approximately ten minutes. The reaction was stopped by adding 100 μl of 1 N HCl, and absorbance measured at 450 nm (reference wavelength 620 nm).

[2] = biological target: Biotinylated murine soluble TWEAK (amino acids 81-225 of SEQ ID NO: 61) (murine) (UniProt O54907); experiment: Biacore SPR, biotinylated murine soluble TWEAK on SA sensor, antibody as analyte, 25 C
[3] = biological target: Mouse soluble TWEAK (mouse) (UniProt O54907); experiment: competition ELISA: antibody pre-incubated with mouse soluble TWEAK, binding to coated mouse Fn14:Fc
[4] = biological target: Biotinylated murine soluble TWEAK (amino acids 81-225 of SEQ ID NO: 61) (murine) (UniProt O54907); experiment: Biacore SPR, biotinylated murine soluble TWEAK on SA sensor, antibody as analyte, 37 C
[5] = biological target: T2, Biotinylated human soluble TWEAK (amino …); experiment: Biacore SPR, biotinylated human soluble TWEAK on SA sensor, antibody as analyte, 25 C
Protocol: A Biacore 2000 instrument was used with a Biacore streptavidin coated sensor mounted into the system. The system buffer HBS-ET (10 mM HEPES pH 7.4, 150 mM NaCl, 1 mM EDTA, 0.05% Tween® 20) was used at a flow rate of 100 μl/min. The sample buffer was the system buffer. Biotinylated human soluble TWEAK (amino acids 99-249 of SEQ ID NO: 60) and biotinylated murine soluble TWEAK (amino acids 81-225 of SEQ ID NO: 61) was immobilized on different flow cells on the SA sensor at 150 RU each. The flow cell FC1 was used as a blank reference cell. Each antibody was injected into the system as an analyte at 100 nM at 100 μl/min for 2 min association time. The dissociation of the immune complexes were monitored for 5 min. The sensor surface was washed with HBS-ET for 10 seconds and regenerated using 2×2 minutes injections with 10 mM glycine pH 2.25. This procedure was done at 25° C. The kinetically rate limiting step of the complex dissociation phase in the interval [240 s-300 s] was taken to calculate the dissociation rate kd [1/s] (Biacore Evaluation Software 4.0). According to the equation t1/2 diss=ln(2)/(60×kd), the half-life of the immunocomplexes in minutes was calculated.

[6] = biological target: T2, Biotinylated human soluble TWEAK (amino …); experiment: Biacore SPR, biotinylated human soluble TWEAK on SA sensor, antibody as analyte, 37 C
[7] = biological target: T3, Human recombinant soluble TWEAK; experiment: cell-based or functional assay
[8] = biological target: T3, Human recombinant soluble TWEAK; experiment: cell-based or functional assay; remark: listed apart in the source
[9] = biological target: T1, human Flag-tagged soluble TWEAK (amino …); experiment: competition ELISA: antibody pre-incubated with human Flag-TWEAK 2.5 ng/ml, binding to coated human Fn14:Fc
Protocol: as §1

| Binder | IC50 [1] | t/2 diss [2] | IC50 [3] | t/2 diss [4] | t/2 diss [5] | t/2 diss [6] | IL8-Secretion [7] | IL-8 Secretion IC50 [8] | IC50 [9] |
| --- | --- | --- | --- | --- | --- | --- | --- | --- | --- |
| Antibody 27 (antibody, V domains shown, also called humanized 305 variant 305-LC2 / 305-HC4) VH: QVQLVQSGAEVKKPGSSVKVSCKASGFDFSTYYMSWVRQAPGQGLEWMGTVYVRQGTTYYASWLNGRVTITADESTSTAYMELSSLRSEDTAVYYCARGGYNYDDAFVIWGQGTLVTVSS VL: DIQMTQSPSSVSASVGDRVTITCQASQNIYSNLAWYQQKPGKAPKLLIYTASYLASGVPSRFSGSGSGTDYTLTISSLQPEDFATYYCQTAYYNSRPDTVAFGGGTKVEIK | 2.3 ng/mL | 19 min | 8.2 ng/mL | 19 min | 110 min | 147 min | 197 ng/mL | – | – |
| Antibody 33 (antibody, V domains shown, Humanized variant of antibody 305; also called humanized 305 variant 305-LC4 / 305-HC4) VH: QVQLVQSGAEVKKPGSSVKVSCKASGFDFSTYYMSWVRQAPGQGLEWMGTVYVRQGTTYYASWLNGRVTITADESTSTAYMELSSLRSEDTAVYYCARGGYNYDDAFVIWGQGTLVTVSS VL: AIRMTQSPSSFSASTGDRVTITCQASQNIYSNLAWYQQKPGKAPKLLIYTASYLASGVPSRFSGSGSGTDYTLTISCLQSEDFATYYCQTAYYNSRPDTVAFGGGTKVEIK | 1.7 ng/mL | 19 min | 6.7 ng/mL | 15 min | 127 min | 99 min | 26 ng/mL | – | – |
| Antibody 28 (antibody, V domains shown, Humanized variant of antibody 305; also called humanized 305 variant 305-LC2 / 305-HC7) VH: EVQLLESGGGLVQPGGSLTLSCAASGFDFSTYYMSWVRQAPGKGLEWVSTVYVRQGTTYYASWLNGRFTISRDNSKNTLYLQMNSLRAEDTAVYYCAKGGYNYDDAFVIWGQGTLVTVSS VL: DIQMTQSPSSVSASVGDRVTITCQASQNIYSNLAWYQQKPGKAPKLLIYTASYLASGVPSRFSGSGSGTDYTLTISSLQPEDFATYYCQTAYYNSRPDTVAFGGGTKVEIK | 1.5 ng/mL | 19 min | 6.5 ng/mL | 17 min | 87 min | 115 min | 165 ng/mL | – | – |
| Antibody 29 (antibody, V domains shown, Humanized variant of antibody 305; also called humanized 305 variant 305-LC2 / 305-HC8) VH: EVQLLESGGGLVQPGGSLRLSCAASGFDFSTYYMSWVRQAPGKGLEWVSTVYVRQGTTYYASWLNGRFTISRDNSKNTLDLQMNSLRAEDTAVYYCAKGGYNYDDAFVIWGQGTLVTVSS VL: DIQMTQSPSSVSASVGDRVTITCQASQNIYSNLAWYQQKPGKAPKLLIYTASYLASGVPSRFSGSGSGTDYTLTISSLQPEDFATYYCQTAYYNSRPDTVAFGGGTKVEIK | 1.8 ng/mL | 22 min | 5.7 ng/mL | 21 min | 146 min | 195 min | 78 ng/mL | – | – |
| Antibody 30 (antibody, V domains shown, Humanized variant of antibody 305; also called humanized 305 variant 305-LC1 / 305-HC10) VH: EVQLLESGGGLVQPGGSLRLSCAASGFDFSTYYMSWVRQAPGKGLEWVSTVYVRQGTTYYASWLNGRFTISRDNSKNTLYLQMNSLTAEDTAVYYCAKGGYNYDDAFVIWGQGTLVTVSS VL: DIQMTQSPSSVSASVGDRVTITCQASQNIYSNLAWYQQKPGKAPKLLIYTASYLASGVPSRFSGSGSGTDFTLTISSLQPEDFATYYCQTAYYNSRPDTVAFGGGTKVEIK | 2.3 ng/mL | 17 min | 7.6 ng/mL | 15 min | 50 min | 45 min | 207 ng/mL | – | – |
| Antibody 31 (antibody, V domains shown, Humanized variant of antibody 305; also called humanized 305 variant 305-LC4 / 305-HC7) VH: EVQLLESGGGLVQPGGSLTLSCAASGFDFSTYYMSWVRQAPGKGLEWVSTVYVRQGTTYYASWLNGRFTISRDNSKNTLYLQMNSLRAEDTAVYYCAKGGYNYDDAFVIWGQGTLVTVSS VL: AIRMTQSPSSFSASTGDRVTITCQASQNIYSNLAWYQQKPGKAPKLLIYTASYLASGVPSRFSGSGSGTDYTLTISCLQSEDFATYYCQTAYYNSRPDTVAFGGGTKVEIK | 1.7 ng/mL | 19 min | 7.1 ng/mL | 19 min | 115 min | 151 min | 94 ng/mL | – | – |
| Antibody 32 (antibody, V domains shown, Humanized variant of antibody 305; also called humanized 305 variant 305-LC6 / 305-HC8) VH: EVQLLESGGGLVQPGGSLRLSCAASGFDFSTYYMSWVRQAPGKGLEWVSTVYVRQGTTYYASWLNGRFTISRDNSKNTLDLQMNSLRAEDTAVYYCAKGGYNYDDAFVIWGQGTLVTVSS VL: DIQMTQSPSTLSASVGDRVTITCQASQNIYSNLAWYQQKPGKAPKLLIYTASYLASGVPSRFSGSGSGTEFTLTISSLQPDDFATYYCQTAYYNSRPDTVAFGGGTKVEIK | 1.5 ng/mL | 17 min | 5.4 ng/mL | 20 min | 67 min | 50 min | 134 ng/mL | – | – |
| Antibody 34 (antibody, V domains shown, Humanized variant of antibody 305; also called humanized 305 variant 305-LC4 / 305-HC2) VH: EVQLLESGGGLVQPGGSLRLSCAASGFDFSTYYMSWVRQAPGKGLEWVSTVYVRQGTTYYASWLNGRFTISRDNSKNTLYLQMNSLRAEDTAVYYCAKGGYNYDDAFVIWGQGTLVTVSS VL: AIRMTQSPSSFSASTGDRVTITCQASQNIYSNLAWYQQKPGKAPKLLIYTASYLASGVPSRFSGSGSGTDYTLTISCLQSEDFATYYCQTAYYNSRPDTVAFGGGTKVEIK | 1.9 ng/mL | 22 min | 5.9 ng/mL | 20 min | 158 min | 185 min | 24 ng/mL | – | – |
| TW-304 (antibody, V domains shown, also called Antibody 304; rabbit antibody 304) VH: QSLEESGGDLVKPGASLTLTCKASGFSFSSTYYMCWVRQAPGKGLEWIGCIYVGSSGAPYYASWAKGRFTISKTSSTTVALQMTSLTPADTATYVCTRSVHFGDLWGPGTLVTVSS VL: DVVMTQTPSPVSAAVGGTVTIKCQASQSIGNDLSWYQQKPGQRPKLLIYSVSTLASGVPSRFKGSGSGTEYSLTISDVQCADAATYYCQCIDYGNNYVGNTFGGGTEVVVK | – | – | – | – | – | – | – | 109 ng/mL | 2.8 ng/mL |
| TW-305 (antibody, V domains shown, also called Antibody 305; rabbit antibody 305) VH: QEQLVESGGGLVQPGGSLTLSCKASGFDFSTYYMSWVRQAPGKGLEWIGTVYVRQGTTYYASWLNGRFTISSDNAQNTVDLKMNSLTAADTATYFCAKGGYNYDDAFVIWGPGTLVTVSF VL: AIEMTQTPFSVSAAVGGTVTINCQASQNIYSNLAWYQQKPGQPPKLLMYTASYLASGVPSRFKGSGSRTEYTLTISGVQCADAATYYCQTAYYNSRPDTVAFGGGTEVVVK | – | – | – | – | – | – | – | 99 ng/mL | 2.5 ng/mL |
